Assay results: the nanobody polyreactivity screen of Harvey et al. (2022)

Experiment: yeast display, Sf9 membrane polyspecificity reagent, FACS + sequencing; frameworks hold sequencing errors
In short: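 Galactose-induced (36–48 hours) yeast carrying a synthetic nanobody display library were exposed to 10% biotinylated, detergent-solubilized Sf9 membrane reagent at 4 °C for 1 hour. FACS followed streptavidin microbead enrichment, using low and high (top ~1%) gates for expression (anti-HA) and reagent binding (streptavidin). Colony PCR, MiSeq 2 × 250 sequencing and CDR-length filtering followed. Labels for polyreactivity reflect the gate of origin.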

Sequence	polyreactivity (PSR sort gate)
QVQLVESGGGLVQAGGSLRLSCAASGSNFHPNGMGRYRQAPRTERELVAAIRRSGGSTYYADSVKGRFTISRDNAKNTVYLQMISLKAEDTAVYYCAAKHYYYSRYVRYDPPPGYYWGQGTQVTVSS	high polyreactivity
QVQLVESGGGLVQAGGSLRLSCAASGSNFKTYVMGWSRQAPGKERELVAAITSSGGRTYYADSVKGRFTISRDNAKNSVYLQMNSLKPEDTAVYYCNTAPRWVGRNDYWGQGTQVTVSS	high polyreactivity
QVQLVESGGGLVQAGGSLRLSCAASGSNFLKNAMGWYRQAPGKERELVAAITSGGSTYYADSVKGRFTISRDNAKNTVYLQMNSLKPEDTAVYYCADETSPSWYTWVTYDYWGQGTQVTVSS	high polyreactivity
QVQLVESGGGLVQAGGSLRLSCAASGSNFNRYAMGWYRQAPGKERELVAAISRSGGRTYYADSVKGRFTISRDNAKNTVYLQMNSLKPEDTAVYYCAAGGRWFYIDDDWGQGTQVTVSS	high polyreactivity
QVQLVESGGGLVQAGGSLRLSCAASGSNFNYYVMGGYRQAPGKERELVAAISRSGTSTYYADSVKGRFTISRDNAKNTVYLQMNRLKPEDSSVYYCAARVSHKYRTYYYWGQGTQVTVSS	high polyreactivity
QVQLVESGGGLVQAGGSLRLSCAASGSNFPVYAMGWYRQAPGKEREFVAAISYSGGGTYYADSVKGRFTISRDNAKNTVYLQMNSLKPEDTAVYYCAADVSGWEYAYWGQGTQVTVSS	low polyreactivity
QVQLVESGGGLVQAGGSLRLSCAASGSNFQYYGMGWYRQAPGKERELVASISRSGGSTYYADSVKGRFTISRDNAKNTVYLQMNSLKPEDTAVYYCNAKEAIRRTHLTTTYRDGYWGQGTQVTVSS	low polyreactivity
QVQLVESGGGLVQAGGSLRLSCAASGSNFSFYAMGWYRQAPGKERELVAAISYSGGSTYYADSVKGRFTISRDNAKNTVYLQINSLKPEDTAVYYCNSDIYRHHGWVPGGYRGQGTQVTVSS	low polyreactivity
QVQLVESGGGLVQAGGSLRLSCAASGSNFTANAMGLYRQAPGKEREMVADISTGGSTKYADSVKGRFTISRDNAKNTVYLEMNSLKPEDTAVYYCAARSRWARGSAIRGFWGQGTQVTVSS	high polyreactivity
QVQLVESGGGLVQAGGSLRLSCAASGSNFVVYAMGWYRQAPGKERELVAAISWGIGSTYYADSVKGRFTISRDNAKNTVYLHMNSLKPQDTAVYYCAADTDIVLYDYWGQGTQVTVSS	low polyreactivity
QVQLVESGGGLVQAGGSLRLSCAASGSNFYGYTMGWYRQAPGKERELVAAISWSGGSTYYADSVKGRFTISRDNAKNTVYLQMNSLKPEDTAVYYCAARWGYSRRGYRGYDYWGQGTQVTVSS	high polyreactivity
QVQLVESGGGLVQAGGSLRLSCAASGSNFYPYAMGWYRQAPGKEREFVAAITRSGGSTSYADSVKGRFTISRDNAKNTVYLQMNSLKPVDTAVDYCAAGYWYPDYDGFDYWGQGTQVTGSS	low polyreactivity
QVQLVESGGGLVQAGGSLRLSCAASGSNIKYYAMGWYRQAPGKERELVAAISWRGGRTYADSVKGRFTISRDNAKNTVYLQMNSLKPEDTAVYYCATAQTSITGRVYYWGQGTQVTVSS	high polyreactivity
QVQLVESGGGLVQAGGSLRLSCAASGSNITYYAMGWYRQAPGKERELVAAINLSGDITYYADSVKGRFTISRDNAKNTVYLQMNSLKPEDTAVYYCAAESASSRPYFNSIHRRDSWGQGTQVTVSS	low polyreactivity
QVQLVESGGGLVQAGGSLRLSCAASGSPFKRYAMGWYRQAPGKERELVAAISSRGSSTYYADSVKGRFTISRDNAKNTVYLQMNSLKPEDTAVYYCAADRYTFWTVHSDYWGQGTQVTVSS	high polyreactivity
QVQLVESGGGLVQAGGSLRLSCAASGSPFTRYTMGWYRHAPGKERELVASITRTGSTNYADSVKGRFTISRDNAKNTLYFQMNSLKPEDTAVYYCAAGRYYSYRFSFGYWGQGTQVTVSS	high polyreactivity
QVQLVESGGGLVQAGGSLRLSCAASGSPFVDNAMGWYRQAPGKEMELVAAIRDGSGGSTRYADSVKGRFTISRDNAKNTVYLQMHSLKPEVTAVYYCAADGYITVNYLRYDYWGQGTQVTVSS	low polyreactivity
QVQLVESGGGLVQAGGSLRLSCAASGSPYQQYGMGWYRQAPGKERELVAAITFSDGNTYYADSVTGRFTISRDNAKNTVYLQMNSLKPEDTAVYYCNAGYSYGVSYAEGGYWGQGTQVTVSS	low polyreactivity
QVQLVESGGGLVQAGGSLRLSCAASGSSFAGNAMGWYRQAPGKERELVAAIDSSTGSTYYADSVKGRFTISRDNAKNTVYLQMNSLKPEDTAVYYCNKTSFLVKLDYWGQGTQVTLSS	low polyreactivity
QVQLVESGGGLVQAGGSLRLSCAASGSSFGGYAMGWYRQAPGKERELVARITDRGGSTDYADSVKGRFTISRDNAKNTVYLQKNSLKPEDTAGSYCAKRGDRYEKRPRDYWGQGTQVTVSS	low polyreactivity
QVQLVESGGGLVQAGGSLRLSCAASGSSFGTYAMGWYRQAPGKERELVAAISSSVGSTYYADSVKGRFTISRDNATNTVYLQMNSLKPEDTAVYYCAVEQEDFWYPYLYDYWGQGTQVTVSS	high polyreactivity
QVQLVESGGGLVQAGGSLRLSCAASGSSFKRYAMGWYRQAPGKERELVAAINWRGGRTYYADSVKGRFTISRDNAKNTVYLQMNSLKPEDTAVYYCNVVSNSYYYQHYYWGQGTQVTVSS	high polyreactivity

Sequence	polyreactivity (PSR sort gate)
QVQLVESGGGLVQAGGSLRLSCAASGSSFTPNALGWYRQAPGKERELVAAISSSSDRTYYADSVKGRFTISRDNAKNTVYLQMNSLKPEDTAVYYCNARTEYASSRYYYWGQGTQVTVSS	high polyreactivity
QVQLVESGGGLVQAGGSLRLSCAASGSSFVSYTMGWYRQAPGKERELVAAISYNGARTYYADSVKGRFTISRDNAKNTVYLQMNSLKPEDTAVYYCARRYYSQYDYWGQGTQVTVSS	high polyreactivity
QVQLVESGGGLVQAGGSLRLSCAASGSSFYYYTMGWYRQAPGKEMELVAAITYSGGSTRYADSVKGRFTISRDNAKNTVYLQMNSLKPEDTAVYYCAAELTEWTNGFDYWGQGTQVTVSS	high polyreactivity
QVQLVESGGGLVQAGGSLRLSCAASGSSKLMLWDGIDRRLGKKGSWLPLFVLVVLRNYSDSVKGRFTISRDNAKNTVYLQMNSLKPEDTAVYYCAATPIGSGGWGDYWGQGTQVTVSS	low polyreactivity
QVQLVESGGGLVQAGGSLRLSCAASGSSLNLNAMGWYRQAPGKERELVAAIRWGGGSTYYADSVKGRFTISRDNAKNTDYLQMNSLKPEDTAVYYCAKAYHLGLGYRFDYWGQGTQVTVSS	high polyreactivity
QVQLVESGGGLVQAGGSLRLSCAASGSSLWYNTMGWYRQAPGKERELVATISGSGANTYYADSVKGRFTISRDNAKNTDYLQMNSLKPEDTAGYYCAAVYRRWGYSSEYDYWGQGTQVTVSS	high polyreactivity
QVQLVESGGGLVQAGGSLRLSCAASGSSRYAMGWYTPAPGKERELVAVITLSGGITYADSVKGRFTISRDNAKNTVYLQMKSLKPEDTAVYYCNADYGDWPTGGDYWGQGTQVTVSS	low polyreactivity
QVQLVESGGGLVQAGGSLRLSCAASGSTCAANAMGWYRQAPGKERELVAGISESVDRTYADSVKGRFTISRDNAKNTVYLQMNSLKPEDTAVYYCKVGANVYLLYFPSRGGVYDYGYWGQGTQVTVSS	low polyreactivity
QVQLVESGGGLVQAGGSLRLSCAASGSTCSVNAMGWYRQAPGKERELVAAITYSGGSTYYADSVKGRFTISRDNAKNTVYLQMNSLKPEDTAVYYCNRDTRYYWKRYGYWGQGTQVTVSS	high polyreactivity
QVQLVESGGGLVQAGGSLRLSCAASGSTDNNAMGWYRQAPGKERELVAAIRFRSGSTYYADSVNGRFTISRDNAKNTVYLQMNSLKPEDTAVYYCAAPGSPYGYWGQGTQVTVSS	high polyreactivity
QVQLVESGGGLVQAGGSLRLSCAASGSTFAAYAKGWYRQAPGKERELVAAISRSGGTTYYADSVKGRFTISRDNAKNTVYLQMNSLKPEDTAVYYCAAEQWYDNYLEYDYWGQGTQVTVSS	high polyreactivity
QVQLVESGGGLVQAGGSLRLSCAASGSTFACNGMGWYRQAPGKERELVAGIDVTGGSTYYADSVKGRFTISRDNAKNTDYLQMNSMKPEDTAVYYCNARYVYHSSFAGFDYWGQGTQVTVSS	low polyreactivity
QVQLVESGGGLVQAGGSLRLSCAASGSTFADYTMGWYRQAPGKERELSTSYADSVKGRFTISRDNAKNTVYLQMNSLKPEDTAVYYCAAETFYDYGGYDYWGQGTQVTVSS	low polyreactivity
QVQLVESGGGLVQAGGSLRLSCAASGSTFAEYAMGLYRQAPGKERELVAAISRRGGSTYYADSVKGRFTFSRDNAKYSVYLQMNSLKPEDTAVYYCATDGYTPYRWLWWLMDYWGQGTQVTVSS	high polyreactivity
QVQLVESGGGLVQAGGSLRLSCAASGSTFAFNAMGWYRQAPGKERELVAAISTSGGDTYYADSVKGRFTISRDNAKNTVYLQMNSLKPEDTAVYYCGGDYQVPGGSWMDYWGQGTQVTVSS	high polyreactivity
QVQLVESGGGLVQAGGSLRLSCAASGSTFAFYAMGWYRQAPGKERELVAAINLGGGSTYYADSVKGRFTISRDNAKNTVYLQMNSLKPEDTAVYYCAADFWTFSWPVFDTYVYWGQGTQVTVSS	low polyreactivity
QVQLVESGGGLVQAGGSLRLSCAASGSTFAFYAMGWYRQAPGKERELVAAISSSGARTYYADSVKGRFTISRYNAKNTVYLQMNSLKPEDTAVYYCAAAFYRLYITSYYYWGQGTQVTVSS	high polyreactivity
QVQLVESGGGLVQAGGSLRLSCAASGSTFAGHAMGWSRQAPGKERELVAAITFSGGRTDYADSVKGRFTISRDNAKNTVYLQMNSLIPEDTAVYYCAAPADDTVHYQNYYWGQGTQVTVSS	low polyreactivity
QVQLVESGGGLVQAGGSLRLSCAASGSTFAGNAMGWYRQAPGKERELVAAISGSGGITYYADSVKGRFTISRDNAKNTVYLQMNSLKPEDTAVYYCNAYYWFSRYGYWGQGTQVTVSS	high polyreactivity
QVQLVESGGGLVQAGGSLRLSCAASGSTFAGYAMGWYRQAPGKERELVAAISRRGGSTYYADSVKGRFTISRDNAKNTVYLQMNSLKPEDTAVYYCNRDKYLRDPDYDYWGQGTQVTVSS	low polyreactivity
QVQLVESGGGLVQAGGSLRLSCAASGSTFAGYVMGWYRQAPGKERELVAAISRSGGSTYYADSVKGRFTISRDNAKNTVYLQMNSLKPEDTAVYYCAARNSPGFPGDYWGHGTQVTVSS	high polyreactivity
